The results in this text go back to paper PMC12124961.

The target in experiment [1] is Bxb1 gp31, tail wing arm (Mycobacteriophage Bxb1). In words: cryo-EM structure.
For experiment [2], the target named is Bxb1 gp19, tail tube protein (Mycobacteriophage Bxb1). The experiment in a line: cryo-EM structure.

In turn, “Bxb1 gp31, tail wing arm (natural protein)” displayed a stoichiometry N in experiment [1] of 2.

With “Bxb1 gp19, tail tube protein (natural protein)”, the stoichiometry N in experiment [2] came out at 6.

For orientation: stoichiometry N means the number of molecules, sites or subunits per partner or assembly.
